Source: patent US20200369765A1
Where a chain is given by its changes, count along the chain named.

B1: mAb1 (antibody, human IgG1, V domains shown)
VH: DVQLQESGPGLVKPSQSLSLTCTVTGYSITGGFAWNWIRQFPGNTLEWMGYIGYGGSTSYNPSLNSRISITRDTSKNHFFLQFNSVTTDDSATYYCARGDYLFAYWGQGTLVTVSA
VL: DIVMTQSHKFMSTSVGDRVSITCKASQDVNTAVAWYQQKPGQSPKLLIYSASYRYTGVPDRFTGSGSGTDFTFTISSVQAEDLAVYYCQQHYSTPRTFGGGTKLEIK
B2: mAb2 (antibody, human IgG1, V domains shown)
VH: B1 VH with D1E, D89E
VL: B1 VL
B3: mAb3 (antibody, human IgG1, V domains shown)
VH: B1 VH with D1E, Q5L, S7T, D89E
VL: DILMTQSPASLSASVGETVSITCRASGNIHNYLAWYLQRQGKSPQLLVYNAKTLADGVPSRFSGTGSGTQFSLKINSLQPEDFGSYYCQHFWSTPRTFGGGTKLEIK
B4: mAb5 (antibody, human IgG1, V domains shown)
VH: EIQLQQSGPELEKPGASVKISCKASGYSFSDYNMNWVKQSNGKSLEWIGNIDPYYGATSYNQRFKGKATLTVDKSSSTAYMQLKSLTSEDSAVYYCARGDSLFAYWGHGTLVTVSA
VL: DIVMTQSQEFMSTSLGDRVSVTCKASQNVGTNVAWYQQKPGQSPKALLYSASSRYSGVPDRFTGSGSGTDFTLTISNVQSEDLAEYFCQQYITYPYTFGGGTKLEIK
B5: mAb6 (antibody, human IgG1, V domains shown)
VH: B4 VH with H108Q
VL: B4 VL with S76N, V78M
B6: mAb4 (antibody, human IgG1, V domains shown)
VH: DVQLVESGGDLVKPGGSLKLSCAASGFAFSSYDMSWVRQSPEKRLEWIAHIGSGGGNIYYPDTVKGRFTISRDNAKNTLYLQMRSLKSEDTAMYYCARLIFTTGFYGMDYWGQGTSVTVSS
VL: DIQMTQTTSSLSASLGDRVTISCRASQDISSYLNWYQQKPDGTIKLLIYYTSRLHSGVPSRFSGSGSGTDYSLTISNLDQDDIATYFCQQGNALPWTFGGGTKLEIK

target: Siglec-7 and/or Siglec-9 on fresh purified human NK cells; experiment: flow cytometry on fresh purified human NK cells, mean of 4 donors

| EC50 | Binder |
| --- | --- |
| 0.05 µg/mL | B1 |
| 0.07 µg/mL | B2 |
| 0.19 µg/mL | B3 |
| 1.27 µg/mL | B4 |
| 1.3 µg/mL | B5 |
| 0.61 µg/mL | B6 |
